Target: AccA3, α-subunit of the acyl-CoA carboxylase AccD5-AccA3 complex (Rv3285) (M. tuberculosis, UniProt P96890 1-600)
Assay: SEC; […]; 25 mM Tris-HCl pH 8.0, 150 mM NaCl, 1 mM DTT
Details: both partners purified

Chain of AccA3, α-subunit of the acyl-CoA carboxylase AccD5-AccA3 complex (Rv3285) (P96890 whole entry, one chain of several): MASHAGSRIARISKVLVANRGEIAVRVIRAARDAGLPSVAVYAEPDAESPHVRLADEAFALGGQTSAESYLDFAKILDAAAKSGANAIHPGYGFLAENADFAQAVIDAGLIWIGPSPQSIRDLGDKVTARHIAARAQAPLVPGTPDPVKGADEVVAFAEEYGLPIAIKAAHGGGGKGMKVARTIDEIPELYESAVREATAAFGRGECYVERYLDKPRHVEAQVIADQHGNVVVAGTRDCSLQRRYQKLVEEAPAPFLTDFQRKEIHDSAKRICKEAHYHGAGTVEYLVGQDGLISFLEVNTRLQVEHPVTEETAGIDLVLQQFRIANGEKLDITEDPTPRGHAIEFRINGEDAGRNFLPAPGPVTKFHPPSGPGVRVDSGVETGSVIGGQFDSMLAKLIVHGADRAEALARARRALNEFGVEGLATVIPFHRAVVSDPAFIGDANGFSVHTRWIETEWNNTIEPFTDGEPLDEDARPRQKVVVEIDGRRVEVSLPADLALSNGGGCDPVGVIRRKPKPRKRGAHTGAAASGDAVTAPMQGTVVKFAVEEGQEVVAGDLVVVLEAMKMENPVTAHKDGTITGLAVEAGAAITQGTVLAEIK

B1: AccD5, β-subunit of the acyl-CoA carboxylase AccD5-AccA3 complex (Rv3280), his-tagged (enzyme)
chain: MTSVTDRSAHSAERSTEHTIDIHTTAGKLAELHKRREESLHPVGEDAVEKVHAKGKLTARERIYALLDEDSFVELDALAKHRSTNFNLGEKRPLGDGVVTGYGTIDGRDVCIFSQDATVFGGSLGEVYGEKIVKVQELAIKTGRPLIGINDGAGARIQEGVVSLGLYSRIFRNNILASGVIPQISLIMGAAAGGHVYSPALTDFVIMVDQTSQMFITGPDVIKTVTGEEVTMEELGGAHTHMAKSGTAHYAASGEQDAFDYVRELLSYLPPNNSTDAPRYQAAAPTGPIEENLTDEDLELDTLIPDSPNQPYDMHEVITRLLDDEFLEIQAGYAQNIVVGFGRIDGRPVGIVANQPTHFAGCLDINASEKAARFVRTCDCFNIPIVMLVDVPGFLPGTDQEYNGIIRRGAKLLYAYGEATVPKITVITRKAYGGAYCVMGSKDMGCDVNLAWPTAQIAVMGASGAVGFVYRQQLAEAAANGEDIDKLRLRLQQEYEDTLVNPYVAAERGYVDAVIPPSHTRGYIGTALRLLERKIAQLPPKKHGNVPL
- binding result: binds

Source: article PMC3076238, “Improved mycobacterial protein production using a Mycobacterium smegmatis groEL1ΔC expression strain” (BMC Biotechnology, 2011)
